According to patent US20250295792A1, “POLYETHYLENE GLYCOL-MODIFIED FORM OF KININ OR DERIVATIVE THEREOF AND PHARMACEUTICAL USE THEREOF” (ZonHon Biopharma Institute, Inc., priority 2022, published 2025):
Where no end group is shown, it is not given here. [ ]: non-standard residue; d: D form. 2Thi = N[C@@H](Cc1cccs1)C(=O)O

Molecular target: B2 receptor
Assay: cell-based or functional assay

Chain of B2 receptor (P30411 whole entry): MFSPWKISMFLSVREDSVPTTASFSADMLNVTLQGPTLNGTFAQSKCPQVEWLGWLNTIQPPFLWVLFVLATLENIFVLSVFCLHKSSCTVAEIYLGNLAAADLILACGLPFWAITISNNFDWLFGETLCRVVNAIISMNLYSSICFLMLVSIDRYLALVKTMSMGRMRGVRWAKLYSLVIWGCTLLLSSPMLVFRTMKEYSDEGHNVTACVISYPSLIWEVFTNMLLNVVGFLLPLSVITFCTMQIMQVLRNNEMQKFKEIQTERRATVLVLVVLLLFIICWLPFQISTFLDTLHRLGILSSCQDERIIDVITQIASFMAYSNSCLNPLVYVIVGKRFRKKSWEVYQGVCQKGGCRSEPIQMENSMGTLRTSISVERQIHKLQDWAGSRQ

Binder	Relative affinity activity (B2-NFAT-CHO-K1 luciferase reporter gene assay, from EC50) [%]
PG[2Thi]SPFR [Lys-BKm08]	< 10
[2Thi]SPFR [Lys-BKm09]	0
RPPG[2Thi]SPFR [Lys-BKm02]	100
KRPPGXSPF ({THI} (β-2-thiophenylalanine) at position 6: KRPPG{THI}SPF) [Lys-BKm05]	< 10
SPFR [Lys-BKm10]	0

Results, then the binder that gave them:

Relative affinity activity (B2-NFAT-CHO-K1 luciferase reporter gene assay, from EC50) [%]	Binder
125	CRPPG[2Thi]SPFR [Lys-BKm15]
120	CRRRPPG[2Thi]SPFR [Lys-BKm16]
115	CRRPPG[2Thi]SPFR [Lys-BKm13]
